Among the data in the supplement of paper PMC12042874 are amyloid nucleation score values, retold here.

± gives the uncertainty stated by the source.

This data set in a line: amyloid nucleation score (Sup35N fusion, yeast selection) (log enrichment); library NNK3; higher = more nucleation; inactive = no reads after selection. An outline of the steps:
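Output and input plasmid inserts were sequenced by Illumina after psi-negative yeast carrying Sup35N fused to peptides of 20 random codons had been induced 24 hours with 100 μM copper sulfate and grown 7 days at 30°C on medium lacking adenine and uracil. The nucleation score is the DiMSum log enrichment of output over input reads, centred on the mode score of non-aggregating sequences. Sequences with under 100 input reads were excluded.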
In the case of MPRESLDLSTWVLVEEFIYI, the amyloid nucleation score entry is “inactive”.

Consider MPSRCMLDSTIILYYWRFEH, for which the amyloid nucleation score was determined as 0.781 ± 0.28.

Turning to MPVSYAG, the amyloid nucleation score result is “inactive”.

Substance MQWNWEGSLYMKIMSGMCHP came in with an amyloid nucleation score of 1.02 ± 0.15.

For MRASCCKCVHICTYMSDRFD, the amyloid nucleation score was found to be 0.743 ± 0.22.

The substance MRHVCSCFRNDHGIDGVF displayed an amyloid nucleation score of 0.06 ± 0.44.

As to MRILKHMFQVDWLVNAMDAE, the amyloid nucleation score entry is “inactive”.

Regarding MRNTFRTHSKQYHHG, the amyloid nucleation score entry was “inactive”.

As to MRRCDVWKIYGYMLSPPLPR, the amyloid nucleation score entry is “inactive”.

Take MRTLYFPKCMTRLKMHVSSI: the amyloid nucleation score result was “inactive”.

For the substance MRWVHSHANHPLHA, the amyloid nucleation score result is “inactive”.

For MRYSFRCF, the amyloid nucleation score result was “inactive”.

With MSADSCCSSCLVSTGTRVTF, the amyloid nucleation score entry is “inactive”.

For MSDEDRYNRWFDTGVGVLDR, the amyloid nucleation score entry is “inactive”.

MSFGKSCEVKGGL: the amyloid nucleation score result is “inactive”.

For MSKYVGRIGCLWGNSASRAR, the amyloid nucleation score entry was “inactive”.

For the substance MSLHCDHIAEGNELWGDVRR, the amyloid nucleation score entry is “inactive”.

Regarding MSLLASLLIMYIPIRYNVE, the amyloid nucleation score result is “inactive”.

For the substance MSMDHLMTYLRLATQVALRS, the amyloid nucleation score entry is “inactive”.

As for MSMPWNNHMISNVYRSYFVA, the amyloid nucleation score entry was “inactive”.

In the case of MSPWSRMF, the amyloid nucleation score result is “inactive”.

As for MSSGLTVSNVL, the amyloid nucleation score result was “inactive”.

In the case of MSSLDARIMSHYVYMVIDPV, the amyloid nucleation score entry is “inactive”.

Consider MSSNFTRS, for which the amyloid nucleation score entry is “inactive”.

For the substance MSSRPGFNT, the amyloid nucleation score entry is “inactive”.

On to MSVDGLHCRWPSWHVKILLD, for which the amyloid nucleation score result was “inactive”.

MSWLKQGLTDR: the amyloid nucleation score result is “inactive”.

On to MSYSGTAHGDFLLRSCPARM, for which the amyloid nucleation score entry is “inactive”.

Take MTGDPGQFNAGDRLM: the amyloid nucleation score entry is “inactive”.

Turning to MTLFVSDTVRSLGNGNWA, the amyloid nucleation score entry was “inactive”.

In the case of MTSSVP, the amyloid nucleation score entry is “inactive”.

Consider MTWNTGLYSRGRHGFYGFST, for which the amyloid nucleation score worked out at 1.26 ± 0.15.

In the case of MTYST, the amyloid nucleation score result was “inactive”.

In the case of MVCFYHTGELPDWENR, the amyloid nucleation score result was “inactive”.

On to MVCIDPFNENLVRVRMTVIG, for which the amyloid nucleation score result is “inactive”.

As to MVFAMTYVLCDDMWSVIGHF, the amyloid nucleation score was found to be 0.141 ± 0.26.

Regarding MVGRGEQVM, the amyloid nucleation score result was “inactive”.

For MVNLSLCLNVVAEGLNFDRF, the amyloid nucleation score turned out to be 1.66 ± 0.091.

For the substance MVVSVQIVFVQVTDMVYHVN, the amyloid nucleation score came out at 0.393 ± 0.24.

MVWWNPNSWNVMLSLIWCLV: the amyloid nucleation score stood at 0.752 ± 0.14.

On to MWITIS, for which the amyloid nucleation score result was “inactive”.

With MWRPSHTYCLSNGKVECREC, the amyloid nucleation score result is “inactive”.

MWSIVSGDKVGSSPVLGGCV: the amyloid nucleation score entry is “inactive”.

The substance MWSVPLKSQAILYTFDCVSL yielded an amyloid nucleation score of 0.174 ± 0.44.

Substance MWVGDKPSGSRRLVLGVRVT yielded an amyloid nucleation score of -0.258 ± 0.91.

Turning to MWVPYSAFRMDQEFGFYGIT, the amyloid nucleation score is 0.057 ± 0.24.

Regarding MYGEMYCRFCVVVVGWLQFV, the amyloid nucleation score entry is “inactive”.

Turning to MYNNC, the amyloid nucleation score entry was “inactive”.

In the case of MYTCLVPSSLK, the amyloid nucleation score result is “inactive”.

Consider MYWWRFVGLQSIYSGQLCKR, for which the amyloid nucleation score result was “inactive”.

In the case of MYYAN, the amyloid nucleation score result was “inactive”.

MYYMVTGRLVICRN: the amyloid nucleation score entry is “inactive”.

NAAGCSVSGCIG: the amyloid nucleation score result is “inactive”.

As to NAFWAILVGPIDPEVSGTYG, the amyloid nucleation score result is “inactive”.

Take NARVDVRRVVLHAKMPSFTI: the amyloid nucleation score entry was “inactive”.

Turning to NASMNKYYVRFTFGNPHVLL, the amyloid nucleation score was 2.52 ± 0.061.

In the case of NAYLCGWL, the amyloid nucleation score result was “inactive”.

Consider NCGSYSKSDN, for which the amyloid nucleation score entry is “inactive”.

For NCICDIYILTLELSLLRRWV, the amyloid nucleation score result is “inactive”.

As to NCICWASYQTGLE, the amyloid nucleation score entry was “inactive”.

NCIYLVLN: the amyloid nucleation score entry was “inactive”.

NCLVVTGRKVPSETHLVFLM: the amyloid nucleation score entry is “inactive”.

For NCNKMCRSCFRCQKTFWVWF, the amyloid nucleation score result was “inactive”.

For the substance NCSYIDQR, the amyloid nucleation score came to 0.483 ± 0.14.

As for NCTDLLRMLYGMRRGINSNC, the amyloid nucleation score result was “inactive”.

In turn, NCTVYLGTFCCSQGFAGLPP yielded an amyloid nucleation score of 3.07 ± 0.053.

In turn, NCVPSCSAAFKSISRQPHGS gave an amyloid nucleation score of 0.115 ± 0.88.

As for NDCISHVSSCRMYDETKVCL, the amyloid nucleation score entry was “inactive”.

In the case of NDGTSILSTQSLSVRWMVRV, the amyloid nucleation score entry was “inactive”.

For the substance NDHLLL, the amyloid nucleation score result was “inactive”.

Turning to NDHPVNSWPVGYSADINQVL, the amyloid nucleation score entry is “inactive”.

As for NDNINRSPESSALWYD, the amyloid nucleation score entry was “inactive”.

Consider NDQKIPLARYLG, for which the amyloid nucleation score entry was “inactive”.

Take NDREWNKRYGINTKQPAAVT: the amyloid nucleation score result is “inactive”.

As to NDSTHLRSRC, the amyloid nucleation score entry is “inactive”.

For the substance NDWRCKEVTSSDIWAFVYCS, the amyloid nucleation score is 0.967 ± 0.12.

NEGSNATC: the amyloid nucleation score was 0.713 ± 0.13.

As for NENYVIAGC, the amyloid nucleation score entry was “inactive”.

Take NFDKFDRRRWVMIIVYMAPA: the amyloid nucleation score result was “inactive”.

Turning to NFDTDGTALRKLR, the amyloid nucleation score entry was “inactive”.

In the case of NFGHMY, the amyloid nucleation score result was “inactive”.

As to NFGTWDQSVLSLRMKLTCVP, the amyloid nucleation score entry is “inactive”.

Regarding NFKLLLTSPWYATV, the amyloid nucleation score result was “inactive”.

Take NFLSALIYILMAYDRDFVYR: the amyloid nucleation score result is “inactive”.

For NFSNHCRKLGEME, the amyloid nucleation score entry is “inactive”.

On to NGGAHSLGK, for which the amyloid nucleation score entry is “inactive”.

On to NGHKEESILCGNGYWKHASE, for which the amyloid nucleation score result is “inactive”.

For NGIVPLSHLFYIGDSVKWWG, the amyloid nucleation score result is “inactive”.

As to NGLVQSMFVIRSLAQRNERR, the amyloid nucleation score result is “inactive”.

For NGPVGN, the amyloid nucleation score result was “inactive”.

Turning to NGVLASWWC, the amyloid nucleation score entry is “inactive”.

NGVLSSA: the amyloid nucleation score entry was “inactive”.

NGWLLTRLSMHLTFGIYMLV: the amyloid nucleation score entry was “inactive”.

Take NGYMSRVHLCPKCFRLHGFR: the amyloid nucleation score result is “inactive”.

In the case of NGYPHLIQHYLVNAG, the amyloid nucleation score result was “inactive”.

The substance NHCNTCSWFLQTS registered an amyloid nucleation score of 1.45 ± 0.14.

With NHDIDALTQTQPTDNSYL, the amyloid nucleation score result is “inactive”.

In the case of NHFAAMLSCFSSRVVVTYQA, the amyloid nucleation score result was “inactive”.

Turning to NHFFALSLVII, the amyloid nucleation score entry is “inactive”.

Consider NHIYGMSAFQSGHCGPCRSN, for which the amyloid nucleation score entry was “inactive”.

With NHNPVCGVDNRMKVVRLYYV, the amyloid nucleation score entry was “inactive”.

For NHQIVRDDRCYKLLIQAVRM, the amyloid nucleation score result is “inactive”.

As for NHSVNAARNLQHQSYCKKSV, the amyloid nucleation score entry is “inactive”.

NIAIGLYRFKMLDGKRSCML: the amyloid nucleation score entry is “inactive”.

Take NIDVYDLMRLSVFDNKMATG: the amyloid nucleation score result was “inactive”.

Substance NIIDKW returned an amyloid nucleation score of -0.357 ± 1.4.

Take NINYSPFISAQVGLIMAPLN: the amyloid nucleation score entry is “inactive”.

With NIRICWG, the amyloid nucleation score worked out at 0.795 ± 0.27.

For the substance NIRIDMMWSLSCHKLG, the amyloid nucleation score result is “inactive”.

NISSVVLGGGLRVGARRI: the amyloid nucleation score entry is “inactive”.

Consider NITVHVNRMKFCCMYAESHD, for which the amyloid nucleation score result was “inactive”.

Turning to NIVSFVGDVFHSLLVG, the amyloid nucleation score result is “inactive”.

As for NIWRMYEIRSVSGKKLRVDI, the amyloid nucleation score result was “inactive”.

For the substance NKLFEDSQAETS, the amyloid nucleation score result is “inactive”.

NKVVAKHGFGVRSFKIWGLD: the amyloid nucleation score entry is “inactive”.

NKVYLGLTKLHSSDPSEMAC returned an amyloid nucleation score of 2.18 ± 0.067.

As to NLDRLYI, the amyloid nucleation score result is “inactive”.

Consider NLEYDPIRHRNVLNPSWFCS, for which the amyloid nucleation score result is “inactive”.

The substance NLFFSVSMSAEFEW displayed an amyloid nucleation score of 0.078 ± 0.37.

Regarding NLFGC, the amyloid nucleation score result is “inactive”.

Regarding NLGLRGPLLAMKCMIACYVQ, the amyloid nucleation score entry is “inactive”.

As to NLGSCVRVGQWISPRRA, the amyloid nucleation score entry was “inactive”.

Regarding NLIVKSNYGAGNDMRCGDYT, the amyloid nucleation score result is “inactive”.

On to NLMEHSIGLYAYYYSLNDCS, for which the amyloid nucleation score entry is “inactive”.

Turning to NLPLKFDTFTFLCVRLNSLS, the amyloid nucleation score result is “inactive”.

NLQERAL yielded an amyloid nucleation score of -0.438 ± 0.88.

The substance NLRHCGCSALGTMTDVNVRG yielded an amyloid nucleation score of 0.692 ± 0.2.

As to NLSSVSIVALLQRVPIYKYL, the amyloid nucleation score result is “inactive”.

For the substance NLSWKGNAQDCLMGSVL, the amyloid nucleation score result was “inactive”.

On to NLTRGYISRKRMSCPQ, for which the amyloid nucleation score result was “inactive”.

Regarding NLVLCN, the amyloid nucleation score result is “inactive”.

Turning to NLVNFYYLVRAFDCELLFRG, the amyloid nucleation score result is “inactive”.

The substance NLWLKSFWSLRLFLRDL returned an amyloid nucleation score of 0.68 ± 0.23.
